Values of other authors, collected in paper PMC9986639.

Target: PAPR (Escherichia coli) (UniProt P17854)
Sequence (P17854 2-244): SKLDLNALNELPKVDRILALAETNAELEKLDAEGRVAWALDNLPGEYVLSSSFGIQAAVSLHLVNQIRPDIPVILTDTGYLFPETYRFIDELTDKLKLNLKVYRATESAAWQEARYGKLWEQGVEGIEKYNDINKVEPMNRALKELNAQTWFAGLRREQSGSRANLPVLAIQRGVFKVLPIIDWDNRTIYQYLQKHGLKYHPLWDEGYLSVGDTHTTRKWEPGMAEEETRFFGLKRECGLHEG

Sequence of Trx1 (P0AA25 2-109): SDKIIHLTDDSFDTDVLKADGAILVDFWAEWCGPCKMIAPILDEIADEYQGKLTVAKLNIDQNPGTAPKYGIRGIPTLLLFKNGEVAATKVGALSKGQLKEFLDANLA

Kd: 110 µM
Substance: Trx1 (from UniProt P0AA25)
